Laboratory results as given in patent US20160361443A1, “Ultrasound Molecular Imaging With Targeted Biocompatible Microbubbles” (University of Pittsburgh - Of the Commonwealth System of …, priority 2015, published 2016).
Where no end group is shown, it is not given here.

Key:
human E-selectin [1] = biological target: T1, human E-selectin (Homo sapiens, UniProt P16581); details: cited from earlier work
T1 sequence (P16581 22-610): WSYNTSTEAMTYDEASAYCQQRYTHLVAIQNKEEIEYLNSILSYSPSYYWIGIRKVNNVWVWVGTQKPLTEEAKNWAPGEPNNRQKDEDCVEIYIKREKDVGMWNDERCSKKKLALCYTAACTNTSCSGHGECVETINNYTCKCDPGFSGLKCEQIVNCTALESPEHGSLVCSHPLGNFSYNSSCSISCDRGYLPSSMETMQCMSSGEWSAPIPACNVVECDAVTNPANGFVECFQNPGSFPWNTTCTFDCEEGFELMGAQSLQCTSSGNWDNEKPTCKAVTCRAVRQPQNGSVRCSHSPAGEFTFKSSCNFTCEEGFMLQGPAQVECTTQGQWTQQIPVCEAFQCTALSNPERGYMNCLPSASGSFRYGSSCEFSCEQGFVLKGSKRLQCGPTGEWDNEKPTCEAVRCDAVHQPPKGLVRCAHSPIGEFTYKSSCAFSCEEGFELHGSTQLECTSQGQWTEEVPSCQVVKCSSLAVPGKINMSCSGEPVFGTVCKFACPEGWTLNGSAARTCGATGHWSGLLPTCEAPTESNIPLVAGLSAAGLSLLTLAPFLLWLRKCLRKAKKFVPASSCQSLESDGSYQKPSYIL

human E-selectin [2] = biological target: T1, human E-selectin; details: static and flow-cell assays; cited from earlier work
[3] = biological target: rat E-selectin on inflamed (IL-1β-activated) rat heart microvascular endothelial cells / inflamed or post-ischemic rat endothelium (rat) (UniProt P98105); assay: parallel plate flow system, activated cultured rat ECs; control microbubble
[4] = biological target: rat E-selectin on inflamed (IL-1β-activated) rat heart microvascular endothelial cells / inflamed or post-ischemic rat endothelium (rat) (UniProt P98105); assay: parallel plate flow system, normal cultured rat ECs; control microbubble
[5] = biological target: rat E-selectin on inflamed (IL-1β-activated) rat heart microvascular endothelial cells / inflamed or post-ischemic rat endothelium (rat) (UniProt P98105); assay: parallel plate perfusion chamber, inflamed rat heart microvascular ECs; control microbubble
[6] = biological target: rat E-selectin on inflamed (IL-1β-activated) rat heart microvascular endothelial cells / inflamed or post-ischemic rat endothelium (rat) (UniProt P98105); assay: cell-based or functional assay
E-selectin [7] = assay: TNF-α induced E-selectin upregulation in HUVEC cells (immunostaining, electrophoresis gel); assay type: cell-based, human; details: TNFα 20 ng/mL for 4 hr vs without TNFα
Text: FIG. 24 presents exempary data of TNF-α induced E-selectin upregulation by immunostaining of HUVEC cells.

E-selectin [8] = assay: RT-qPCR of heart after LPS injection, E-selectin mRNA; assay type: in vivo, rat; details: 4 hours post LPS injection
Experimental: (§1) Wistar Rats were intraperitoneally injected with lipopolysaccharide (LPS) in normal saline (dose: 1 mg/kg) to induce systemic inflammation. Four hours post-injection, rats were anesthetized and intubated.
(§2) LPS treated and untreated (i.e., baseline) hearts were harvested. RNA extraction and reverse transcriptase real-time quantitative polymerase chain reaction (RT-qPCR) for E-selectin, ICAM and glyceraldehyde 3-phosphate dehydrogenase (GAPDH, a house keeping gene) in the heart were performed. E-selectin and ICAM mRNA expression level were expressed as percent of GAPDH.

ICAM = assay: RT-qPCR of heart after LPS injection, ICAM mRNA; assay type: in vivo, rat; details: 4 hours post LPS injection
Experimental: as §1, §2

E-selectin [9] = biological target: T2, E-selectin (Rattus norvegicus, UniProt P98105); assay: Ultrasound molecular imaging with targeted MB (Mal) in LPS rat inflammation model; assay type: in vivo; details: 2×10^7 MB
T2 construct: Immunofluorescent staining in all rats consistently confirmed microvascular E-selectin and ICAM-1 expression in postischemic myocardium; from tissue
T2 sequence (P98105 22-549): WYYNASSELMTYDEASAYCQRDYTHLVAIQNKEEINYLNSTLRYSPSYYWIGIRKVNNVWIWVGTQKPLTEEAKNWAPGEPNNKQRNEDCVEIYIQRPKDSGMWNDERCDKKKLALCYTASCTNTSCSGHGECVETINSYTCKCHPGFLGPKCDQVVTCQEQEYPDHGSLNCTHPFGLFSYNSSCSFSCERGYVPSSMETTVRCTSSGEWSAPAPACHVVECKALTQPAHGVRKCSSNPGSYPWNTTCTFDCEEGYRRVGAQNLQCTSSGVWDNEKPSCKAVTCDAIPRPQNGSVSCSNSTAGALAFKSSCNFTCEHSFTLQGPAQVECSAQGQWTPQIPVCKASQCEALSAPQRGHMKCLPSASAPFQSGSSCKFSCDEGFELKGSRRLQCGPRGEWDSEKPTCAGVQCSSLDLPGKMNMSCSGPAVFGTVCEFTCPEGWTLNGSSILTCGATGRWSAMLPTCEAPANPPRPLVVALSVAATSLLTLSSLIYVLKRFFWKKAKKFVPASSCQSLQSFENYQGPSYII
Experimental: FIG. 26 presents exemplary data comparing myocardial retention of microbubble populations (2×10^7) either with, or without, a targeting ligand in an LPS rat inflammation model. The data were linearized and a two-phase washout model was fitted to obtain the retained MB concentration in the myocardium.
as §1
Each rat received intravenous injection of targeted MB Esel(MAL) and control MB IgG in random order (2×10^7 MB in 200 μL saline followed by a 200 μL saline flush). Baseline contrast ultrasound images were obtained before each microbubble injection and intermittent contrast ultrasound imaging were performed for 20 min to monitor the adhesion dynamics of MB in the myocardium. Acuson Sequoia 512 clinical ultrasound system (Siemens, Mountain View, Calif.) with a 15 L8 linear array transducer was used for imaging in CPS mode at 7 MHz.
Microbubble (MB) signals in the anterior myocardium and in the left ventricular cavity were also analyzed. […] Signal intensity was linearized and a two-phase washout model
was used to calculate the amount of MB retention in the myocardium.

H2NDITWDQLWDLMK-COOH (H-DITWDQLWDLMK-OH) [AF10166]
Kd value (human E-selectin [1]; believed, from phage display library screening): low nanomolar range
IC50 (human E-selectin [1]): 4.4 nM
Neutrophil adhesion (human E-selectin [2]): blocks neutrophil adhesion

MBIgG: polymer/albumin double-shell microbubble bearing rat biotinylated immunoglobulin G (non-specific IgG, BD Biosciences) via biotin-streptavidin bridging (antibody)
adherent microbubbles per endothelial cell (MB/EC) [3]: 2 MB/EC
adherent microbubbles per endothelial cell (MB/EC) [4]: 2 MB/EC
adherent microbubbles per endothelial cell (MB/EC) [5]: 2.3 MB/EC
adherent microbubbles per field, intravital microscopy of TNF-α-inflamed rat cremaster microcirculation (control microbubble) [6]: 1.1 MBs/field
background-subtracted videointensity, postischemic LAD bed (control microbubble) [6]: 1.7 dB
myocardial videointensity, post-ischemic bed (control microbubble) [6]: 2 dB

TNFα
E-selectin expression (in words) (E-selectin [7]): significant upregulation

lipopolysaccharide [LPS]
Esel mRNA expression (E-selectin [8]): 2.28±1.32 % of GAPDH
ICAM mRNA expression (ICAM): 6.09±3.14 % of GAPDH

targeted MB: Polymer microbubble conjugated to E-selectin targeting peptide by thioether bond (maleimide-thiol chemistry) (CDITWDQLWDLMK; not fully specified (residue 1); also: N-terminal Cys thioether to maleimide linker BM(PEG)3 on microbubble shell)
Myocardial MB concentration, more as compared with control IgG MB injection (E-selectin [9]; 6 minutes post-injection, 4 h post LPS 1 mg/kg): 185%
Retained MB in the myocardium (Ar term) as compared with control MB injection (E-selectin [9]; two-phase washout model fit, 4 h post LPS): 330%
